Consider two molecules from patent US20040180375A1.

What all share (assay): cell-based or functional assay
The target in assay [1] is human His6-Gαi2 (expressed in Sf9 cells) (human) (UniProt P04899).
Assay [2] deals with rat Gαs (rat) (UniProt P63095).
The target in assay [3] is GPA1(1-41)-Gα16(S270P) (GPA1-human Gα16 fusion construct) (yeast; human).
Assay [4] concerns the target T1, yeast GPA1 (yeast) (UniProt P08539).
T1 sequence (looked up): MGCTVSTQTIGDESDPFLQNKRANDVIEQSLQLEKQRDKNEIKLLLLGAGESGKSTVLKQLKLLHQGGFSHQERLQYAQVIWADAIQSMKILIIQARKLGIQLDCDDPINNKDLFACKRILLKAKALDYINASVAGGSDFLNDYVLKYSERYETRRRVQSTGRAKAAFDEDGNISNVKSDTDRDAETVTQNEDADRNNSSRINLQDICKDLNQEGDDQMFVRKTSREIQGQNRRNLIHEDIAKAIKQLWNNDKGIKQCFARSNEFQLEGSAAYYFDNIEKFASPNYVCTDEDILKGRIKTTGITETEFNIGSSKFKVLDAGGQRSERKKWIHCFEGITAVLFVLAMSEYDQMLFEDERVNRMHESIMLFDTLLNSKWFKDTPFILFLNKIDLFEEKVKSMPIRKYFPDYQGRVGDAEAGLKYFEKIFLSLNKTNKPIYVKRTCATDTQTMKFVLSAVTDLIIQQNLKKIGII

The target in assay [5] is GPA1(1-41)-Gαi2 chimera (first 41 amino acids of yeast Gpa1 fused to amino acids 36-356 of human Gαi2) (yeast; human) (UniProt P08539).
In assay [6] the target is GPA1(1-41)-Gαi3 (GPA1-human Gαi3 fusion construct) (yeast; human) (UniProt P08539).

Sequence of human His6-Gαi2 (expressed in Sf9 cells) (human) (P04899 whole entry): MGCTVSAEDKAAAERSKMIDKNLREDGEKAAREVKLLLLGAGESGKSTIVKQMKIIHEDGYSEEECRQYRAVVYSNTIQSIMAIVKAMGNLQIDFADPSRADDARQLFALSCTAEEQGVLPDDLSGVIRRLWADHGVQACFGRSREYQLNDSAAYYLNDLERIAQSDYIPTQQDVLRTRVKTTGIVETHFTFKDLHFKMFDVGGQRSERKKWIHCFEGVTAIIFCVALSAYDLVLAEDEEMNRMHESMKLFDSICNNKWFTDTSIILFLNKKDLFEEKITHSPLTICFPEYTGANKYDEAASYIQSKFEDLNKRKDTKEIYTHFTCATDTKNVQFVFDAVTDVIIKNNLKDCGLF
Sequence of rat Gαs (rat) (P63095 whole entry, the tested form may be a part): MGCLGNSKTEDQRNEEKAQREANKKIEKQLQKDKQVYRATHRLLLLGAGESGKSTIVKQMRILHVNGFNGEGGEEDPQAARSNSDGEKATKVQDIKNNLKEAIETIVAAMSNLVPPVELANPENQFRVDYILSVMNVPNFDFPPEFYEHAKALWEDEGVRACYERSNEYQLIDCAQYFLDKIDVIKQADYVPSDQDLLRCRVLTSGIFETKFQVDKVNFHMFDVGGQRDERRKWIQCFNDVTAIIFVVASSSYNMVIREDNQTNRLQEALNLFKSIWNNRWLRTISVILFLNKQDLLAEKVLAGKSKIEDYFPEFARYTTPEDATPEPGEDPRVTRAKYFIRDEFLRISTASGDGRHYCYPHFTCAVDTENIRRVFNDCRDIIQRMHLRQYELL

B1: GST-AGS1 (N-terminal GST fusion of AGS1, expressed in yeast from the CUP1 promoter on plasmid pYEX-4T1) (protein, not shown: a dimerising Fc or GST)
chain: MKLAAMIKKMCPSDSELSIPAKNCYRMVILGSSKVGKTAIVSRFLTGRFEDAYTPTIEDFHRKFYSIRGEVYQLDILDTSGNHPFPAMRRLSILTGDVFILVFSLDNRDSFEEVQRLRQQILDTKSCLKNKTKENVDVPLVICGNKGDRDFYREVDQREIEQLVGDDPQRCAYFEISAKKNSSLDQMFRALFAMAKLPSEMSPDLHRKVSVQYCDVLHKKALRNKKLLRAGSGGGGGDPGDAFGIVAPFARRPSVHSDLMYIREKASAGSQAKDKERCVIS
The molecule B1 displayed a GTPγS binding to purified Gα (filter binding of GTPγ35S, 40 min) in assay [1] of 25%.

B2: AGS1 (Activator of G protein Signaling, human, 281 amino acids) (protein)
chain: B1 chain
On to B2, for which the β-galactosidase activity (FUS1p-lacZ reporter in yeast, AGS1, galactose) (relative β-galactosidase activity) turned out to be 6.4 in assay [2]; 22.5 in assay [3]; 7.6 in assay [4]; 125 in assay [5]; 63.3 in assay [6].
